# According to US20240391954A1, “MC4R AGONIST PEPTIDES” (The Regents of the University of Michigan, priority 2021, published 2024):
# Positions of bridges follow the written chain, without caps; N, C: chain ends. Non-standard residues stand in square brackets, D forms with d. dPhe(4-Br) = N[C@H](Cc1ccc(Br)cc1)C(=O)O
# B1: CTX-2204 (peptide)
# peptide: Ac-RC[dA]P[dPhe(4-Br)]RWC-NH2
# modifications: disulfide 2-8
# SMILES: CC(=O)N[C@@H](CCCNC(=N)N)C(=O)N[C@H]1CSSC[C@@H](C(N)=O)NC(=O)[C@H](Cc2c[nH]c3ccccc23)NC(=O)[C@H](CCCNC(=N)N)NC(=O)[C@@H](Cc2ccc(Br)cc2)NC(=O)[C@@H]2CCCN2C(=O)[C@@H](C)NC1=O
# Legend:
# Test in all cases: cell-based or functional assay
# human MC3R = human MC3R (human, UniProt P41968 1-323)
# Sequence of human MC3R (P41968 whole entry): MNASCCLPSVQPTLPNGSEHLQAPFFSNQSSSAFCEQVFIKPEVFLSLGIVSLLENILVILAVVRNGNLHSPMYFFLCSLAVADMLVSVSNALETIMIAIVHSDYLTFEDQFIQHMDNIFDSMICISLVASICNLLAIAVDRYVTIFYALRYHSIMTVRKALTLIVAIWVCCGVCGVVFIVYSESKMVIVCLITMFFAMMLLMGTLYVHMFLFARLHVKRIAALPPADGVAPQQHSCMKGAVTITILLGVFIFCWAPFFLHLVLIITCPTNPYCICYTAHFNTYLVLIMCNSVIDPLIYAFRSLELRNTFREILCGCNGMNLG
# human MC4R receptor [1] = target: T1, human MC4R receptor (human, UniProt P32245 1-332)
# T1 sequence (P32245 whole entry): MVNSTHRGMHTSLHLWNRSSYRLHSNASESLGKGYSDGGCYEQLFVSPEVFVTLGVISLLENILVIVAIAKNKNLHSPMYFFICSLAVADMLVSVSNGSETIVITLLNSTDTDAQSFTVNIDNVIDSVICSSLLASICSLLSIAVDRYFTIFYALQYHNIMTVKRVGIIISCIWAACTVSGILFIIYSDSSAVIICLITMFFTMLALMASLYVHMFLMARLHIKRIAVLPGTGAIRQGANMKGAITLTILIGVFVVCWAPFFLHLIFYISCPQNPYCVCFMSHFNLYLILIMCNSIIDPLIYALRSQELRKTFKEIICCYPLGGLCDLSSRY
# human MC4R receptor [2] = target: T1, human MC4R receptor; remark: listed apart in the source
Binder,% max activation (human MC3R) [%],cAMP EC50 (human MC3R) [nM],% max activation (human MC4R receptor [1]) [%],cAMP EC50 (human MC4R receptor [1]) [nM],MC4R selectivity vs MC3R (human MC4R receptor [2]),MC4R selectivity vs MC1R (human MC4R receptor [2])
B1,0.2,11,13,58,0.19,–
Ac-RC[dA]R[dPhe(4-Br)]RWC-NH2 (disulfide 2-8) [CTX-2205],13,18,88,8,2.12,0.2
